Key:
[1] = molecular target: His6-tagged 14-3-3ε (human) (UniProt P62258); test: SPR
[2] = molecular target: 14-3-3ε/γ heterodimer (His6-tagged 14-3-3ε with untagged 14-3-3γ) (human) (UniProt P62258); test: SPR
[3] = molecular target: human 14-3-3ε devoid of the C-terminal flexible tail (14-3-3εΔC) (human); test: SEC
Sequence of human 14-3-3ε devoid of the C-terminal flexible tail (14-3-3εΔC) (human) (B3KY71 whole entry, stated change not applied): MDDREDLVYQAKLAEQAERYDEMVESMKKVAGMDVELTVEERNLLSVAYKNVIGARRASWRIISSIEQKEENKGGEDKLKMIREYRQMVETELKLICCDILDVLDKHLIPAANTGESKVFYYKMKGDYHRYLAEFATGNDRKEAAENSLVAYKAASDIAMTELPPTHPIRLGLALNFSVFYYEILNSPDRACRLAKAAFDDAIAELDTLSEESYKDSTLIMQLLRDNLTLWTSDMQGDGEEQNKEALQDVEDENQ

Kd [1]: 13 µM | Kd [2]: 15 µM | stoichiometry N (STARD1 per 14-3-3 subunit (2:2)) [3]: 1 | stoichiometry N ([3]; scale: STARD1 per 14-3-3 subunit): 0.5
B1: STARD1_(46-285)-S56A/L59P phosphorylated at Ser57 and Ser195 (domain or fragment)
chain: STWINQVRRRASLPGSRLEETLYSDQELAYLQQGEEAMQKALGILSNQEGWKKESQQDNGDKVMSKVVPDVGKVFRLEVVVDQPMERLYEELVERMEAMGEWNPNVKEIKVLQKIGKDTFITHELAAEAAGNLVGPRDFVSVRCAKRRGSTCVLAGMATDFGNMPEQKGVIRAEHGPTCMVLHPLAGSPSKTKLTWLLSIDLKGWLPKSIINQVLSQTQVDFANHLRKRLESHPASEARC
modifications: phosphoserine at 57; phosphoserine at 195
